Ends that are not written are not given here. * marks the point of attachment. Biotin = O=C1N[C@H]2[C@H](CS[C@H]2CCCCC(=O)*)N1
Legend:
Experiment in all cases: peptide or protein array; E. coli proteome chip: purified His-tagged proteins printed in duplicate on Fullmoon slides, blocked with 1% BSA; 10 nM N-terminal biotinylated LfcinB with 1% BSA, room temperature, 1 h; detected with DyLight 649-labeled streptavidin, ratio to DyLight 549-labeled anti-His antibody; ProCAT normalisation, local cut-off; triplicate chips
Details in all cases: both partners purified
YfiQ = biological target: T1, YfiQ (E. coli K-12, UniProt P76594 1-886)
T1 construct: YfiQ, E. coli K-12
T1 sequence (looked up): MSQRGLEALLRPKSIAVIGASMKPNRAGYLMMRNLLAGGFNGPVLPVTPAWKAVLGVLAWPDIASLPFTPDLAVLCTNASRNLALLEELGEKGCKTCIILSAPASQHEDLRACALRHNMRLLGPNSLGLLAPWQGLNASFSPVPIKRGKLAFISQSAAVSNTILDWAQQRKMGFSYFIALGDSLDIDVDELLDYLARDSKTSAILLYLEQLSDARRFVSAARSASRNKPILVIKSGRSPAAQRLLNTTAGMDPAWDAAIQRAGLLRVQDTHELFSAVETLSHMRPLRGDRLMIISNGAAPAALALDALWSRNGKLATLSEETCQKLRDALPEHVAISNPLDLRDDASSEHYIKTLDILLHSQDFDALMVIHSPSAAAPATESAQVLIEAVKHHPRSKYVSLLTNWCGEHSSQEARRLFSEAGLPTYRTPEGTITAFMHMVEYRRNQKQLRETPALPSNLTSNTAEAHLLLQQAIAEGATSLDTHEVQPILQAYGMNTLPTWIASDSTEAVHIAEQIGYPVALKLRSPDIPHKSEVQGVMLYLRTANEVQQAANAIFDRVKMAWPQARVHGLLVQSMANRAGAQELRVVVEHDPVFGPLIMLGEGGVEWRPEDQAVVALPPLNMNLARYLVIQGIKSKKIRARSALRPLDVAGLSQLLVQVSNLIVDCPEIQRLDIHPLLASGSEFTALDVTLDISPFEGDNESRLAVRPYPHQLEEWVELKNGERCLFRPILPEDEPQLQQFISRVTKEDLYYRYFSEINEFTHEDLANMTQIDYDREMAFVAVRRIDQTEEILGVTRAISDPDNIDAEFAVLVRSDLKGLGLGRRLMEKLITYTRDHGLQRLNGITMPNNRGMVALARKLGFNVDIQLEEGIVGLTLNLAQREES

SoxS = biological target: T2, SoxS (E. coli K-12, UniProt P0A9E2 1-107)
T2 construct: SoxS, E. coli K-12
T2 sequence (looked up): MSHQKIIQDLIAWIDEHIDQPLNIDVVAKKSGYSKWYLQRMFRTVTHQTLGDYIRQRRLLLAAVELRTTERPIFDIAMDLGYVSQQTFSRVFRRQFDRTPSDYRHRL

YtfI = biological target: T3, YtfI (E. coli K-12, UniProt P39317 1-312)
T3 construct: YtfI, E. coli K-12
T3 sequence (looked up): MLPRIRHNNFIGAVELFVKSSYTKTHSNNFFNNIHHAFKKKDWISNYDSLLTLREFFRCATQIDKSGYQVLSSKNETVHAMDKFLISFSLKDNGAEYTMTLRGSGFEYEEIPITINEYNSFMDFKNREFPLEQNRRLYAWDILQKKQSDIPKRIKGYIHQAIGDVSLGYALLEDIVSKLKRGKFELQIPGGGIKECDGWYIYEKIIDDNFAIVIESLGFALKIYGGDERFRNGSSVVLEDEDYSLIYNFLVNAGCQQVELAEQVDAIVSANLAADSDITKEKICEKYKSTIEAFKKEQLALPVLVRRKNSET

YihS = biological target: T4, YihS (E. coli K-12, UniProt P32140 1-413)
T4 construct: YihS, E. coli K-12
T4 sequence (looked up): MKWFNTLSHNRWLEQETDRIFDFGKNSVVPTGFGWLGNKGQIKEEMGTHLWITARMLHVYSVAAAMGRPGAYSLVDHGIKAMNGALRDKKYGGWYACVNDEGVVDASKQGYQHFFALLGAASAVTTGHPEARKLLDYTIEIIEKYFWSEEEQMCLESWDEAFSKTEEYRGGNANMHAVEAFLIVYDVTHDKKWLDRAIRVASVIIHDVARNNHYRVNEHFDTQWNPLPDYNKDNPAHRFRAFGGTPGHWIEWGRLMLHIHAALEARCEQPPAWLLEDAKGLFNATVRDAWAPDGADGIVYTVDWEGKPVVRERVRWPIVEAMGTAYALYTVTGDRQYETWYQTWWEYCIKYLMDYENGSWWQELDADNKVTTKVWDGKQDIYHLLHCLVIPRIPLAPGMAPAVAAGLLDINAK

GlgS = biological target: T5, GlgS (E. coli K-12, UniProt P26649 1-66)
T5 construct: GlgS, E. coli K-12
T5 sequence (looked up): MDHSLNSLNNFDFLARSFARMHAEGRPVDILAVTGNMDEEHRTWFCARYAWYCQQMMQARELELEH

Measured: binding result

B1: N-terminal biotinylated Lactoferricin B (peptide, UniProt P24627 36-60, looked up)
peptide: Biotin-FKCRRWQWRMKKLGAPSITCVRRAF
modifications: ends and bridges not checked
notes: lactoferricin B (LfcinB), cationic antimicrobial peptide of 25 amino acids; also called biotinylated LfcinB; biotin-labeled LfcinB; source: bought: Kelowna Inc
binds: all assays above

From publication PMC3229523, “Identification of Lactoferricin B Intracellular Targets Using an Escherichia coli Proteome Chip” (PLoS ONE, 2011)
